According to patent US20250152746A1, “BASE EDITING OF ANGPTL3 AND METHODS OF USING SAME FOR TREATMENT OF DISEASE” (Verve Therapeutics, Inc., priority 2020, published 2025):

Tests used:
ANGPTL3 = settings: phase I clinical trials; cited from earlier work
PCSK9 gene splice site [1] = assay type: cell-based, human; settings: for editing activities, ranking of guides: ABE8.8 mRNA MA002
Procedure: (§1) PCSK9 gRNAs were co-transfected with an equivalent amount of in vitro transcribed ABE8.8 mRNA MA002 (1:1 ratio by weight) into primary hepatocytes and processed as described in detailed methods. In one set of experiments, extracted genomic DNA was analyzed for base editing of the target splice site with next-generation sequencing of PCR amplicons generated around the target sites. Samples were prepared using the Nextera XT DNA library preparation kit (Illumina) according to the manufacturer's protocol. Briefly, two rounds of PCR were performed first to amplify the region of interest and second to add DNA sequences required for next generation sequencing and sample identification to the initial product. The final amplicon was sequenced on the Illumina MiSeq instrument according to the manufacturer's protocol.
(§2) Similarly, three gRNAs (GA098, GA099, GA100) were synthesized matching the 5′-[…]-3′ (SEQ ID NO: 15) (GA091) human protospacer sequence, as well as four gRNAs (GA067/GA101, GA102, GA103, GA347) matching the 5′-[…]-3′ (SEQ ID NO: 14) (GA067) cynomolgus protospacer sequence, but with more extensive chemical modifications of various kinds (Table 1). GA066 and GA095 contain the same chemical composition and modification pattern, as do GA067 and GA101 with one another. […] Each of the gRNAs described in Table 8, with an equivalent amount of in vitro transcribed ABE8.8 mRNA MA002 (1:1 ratio by weight), were co-transfected into primary human hepatocytes and primary cynomolgus hepatocytes via MessengerMax reagent, using various dilutions to assess for editing activity at different concentrations of test article. Three days after transfection, genomic DNA was harvested from the hepatocytes, and then assessed for base editing of the target splice site with next-generation sequencing.
Modifications and/or truncations to either the spacer or tracr portion of the gRNA was assessed by alteration of the GA066 spacer (5′-[…]-3′ (SEQ ID NO: 13)) (Table 12). […] Each of the gRNAs with an equivalent amount of in vitro transcribed ABE8.8 mRNA (1:1 ratio by weight) were co-transfected into primary human hepatocytes and primary cynomolgus hepatocytes and processed as described in detailed methods. […]

PCSK9 gene splice site [2] = assay type: cell-based, cynomolgus monkey
Procedure: as §1, §2
Modifications and/or truncations to either the spacer or tracr portion of the gRNA was assessed by alteration of the GA066 spacer (5′-[…]-3′ (SEQ ID NO: 13)) (Table 12). […] Each of the gRNAs with an equivalent amount of in vitro transcribed ABE8.8 mRNA (1:1 ratio by weight) were co-transfected into primary human hepatocytes and primary cynomolgus hepatocytes and processed as described in detailed methods.
Lipid nanoparticles containing ABE8.8 mRNA and a gRNA matching the human/cynomolgus 5′-[…]-3′ (SEQ ID NO: 13) sequence (GA066) that targets the splice donor at the 5′ end of PCSK9 intron 1 were formulated at a 1:1 ratio by weight. The LNPs were administered to primary human hepatocytes and primary cynomolgus hepatocytes, using various dilutions to assess for editing activity at different concentrations of test article. LNP containing Cas9 mRNA and a gRNA matching a protospacer sequence in another gene, ANGPTL3, as a positive control was used for these experiments.
Plating, culturing, and transfection of primary hepatocytes. Primary human liver hepatocytes (PHH) and primary cynomolgus liver hepatocytes (PCH) from BioIVT were cultured per the manufacturer's protocol. Briefly, primary human hepatocytes and primary cyno hepatocytes were obtained as frozen aliquots from BioIVT.

| Molecule | lipid lowering effect (ANGPTL3) | Human Primary Hepatocytes-splice site editing % 1250 ng/mL (PCSK9 gene splice site [1]) | Human Primary Hepatocytes-splice site editing % 2500 ng/mL (PCSK9 gene splice site [1]) | Human Primary Hepatocytes-splice site editing % 5000 ng/mL (PCSK9 gene splice site [1]) | Cynomolgous Primary Hepatocytes-splice site editing % 1250 ng/mL (PCSK9 gene splice site [2]) | Cynomolgous Primary Hepatocytes-splice site editing % 2500 ng/mL (PCSK9 gene splice site [2]) | Cynomolgous Primary Hepatocytes-splice site editing % 5000 ng/mL (PCSK9 gene splice site [2]) | editing activities, ranking of guides (PCSK9 gene splice site [1]) |
| --- | --- | --- | --- | --- | --- | --- | --- | --- |
| evinacumab | significant lipid lowering effect | – | – | – | – | – | – | – |
| GA077: PCSK9 gRNA for ABE8.8 splice site editing, Human/Cyno (nucleic acid, 2'-O-methyl at 1, 2, other sugars and backbone not given here; further chemistry not fully specified, PCSK9 gRNA for ABE8.8 splice site editing, Human/Cyno) guide: UCCCAGGCCTGGAGTTTATTGTTTTAGAGCTAGAAATAGCAAGTTAAAATAAGGCTAGTCCGTTATCAACTTGAAAAAGTGGCACCGAGTCGGTGCTTTT | – | 2.8% | 5.7% | 6.0% | 4.1% | 5.7% | 5.4% | – |
| GA073: PCSK9 gRNA; protospacer GCTTACCTGTCTGTGGAAGC (SEQ ID NO: 67), splice donor of intron 4 (nucleic acid, listed as RNA; modified_base 1: mod_base = OTHER; note = 2'-O-Methyl-guanosine phosphorothioate; modified_base 2: mod_base = OTHER; note = 2'-O-Methyl-cytidine phosphorothioate; modified_b) guide: GCTTACCTGTCTGTGGAAGCGTTTTAGAGCTAGAAATAGCAAGTTAAAATAAGGCTAGTCCGTTATCAACTTGAAAAAGTGGCACCGAGTCGGTGCTTTT | – | 11.2% | 17.5% | 25.4% | 24.7% | 23.2% | 29.2% | performing the best |
| GA079: PCSK9 gRNA for ABE8.8 splice site editing, Human/Cyno (nucleic acid, listed as RNA; modified_base 1: mod_base = OTHER; note = 2'-O-Methyl-cytidine phosphorothioate; modified_base 2: mod_base = OTHER; note = 2'-O-Methyl-uridine phosphorothioate; modified_bas, PCSK9 gRNA for ABE8.8 splice site editing, Human/Cyno) guide: CTTTCCAGGTCATCACAGTTGTTTTAGAGCTAGAAATAGCAAGTTAAAATAAGGCTAGTCCGTTATCAACTTGAAAAAGTGGCACCGAGTCGGTGCTTTT | – | 2.2% | 4.9% | 6.5% | 0.6% | 0.5% | 0.5% | – |
| GA088: PCSK9 gRNA for ABE8.8 splice site editing, Human/Cyno (nucleic acid, 2'-O-methyl at 1, 2, other sugars and backbone not given here; further chemistry not fully specified, PCSK9 gRNA for ABE8.8 splice site editing, Human/Cyno) guide: CCCAGGCTGCAGCTCCCACTGTTTTAGAGCTAGAAATAGCAAGTTAAAATAAGGCTAGTCCGTTATCAACTTGAAAAAGTGGCACCGAGTCGGTGCTTTT | – | 3.6% | 6.2% | 7.2% | 17.0% | 23.0% | 24.8% | – |
| GA074: PCSK9 gRNA; protospacer TGCTTACCTGTCTGTGGAAG (SEQ ID NO: 68), splice donor of intron 4 (nucleic acid, listed as RNA; modified_base 1: mod_base = OTHER; note = 2'-O-Methyl-uridine phosphorothioate; modified_base 2: mod_base = OTHER; note = 2'-O-Methyl-guanosine phosphorothioate; modified_ba) guide: TGCTTACCTGTCTGTGGAAGGTTTTAGAGCTAGAAATAGCAAGTTAAAATAAGGCTAGTCCGTTATCAACTTGAAAAAGTGGCACCGAGTCGGTGCTTTT | – | 11.6% | 18.8% | 23.8% | 17.5% | 20.1% | 18.7% | performing the best |
| GA072: PCSK9 gRNA for ABE8.8 splice site editing, Human/Cyno (nucleic acid, 2'-O-methyl at 1, 2, other sugars, backbone and T or U not given here; further chemistry not fully specified, PCSK9 gRNA for ABE8.8 splice site editing, Human/Cyno) guide: GGTGGCTCACCAGCTCCAGCGTTTTAGAGCTAGAAATAGCAAGTTAAAATAAGGCTAGTCCGTTATCAACTTGAAAAAGTGGCACCGAGTCGGTGCTTTT | – | 1.5% | 2.2% | 2.5% | 2.3% | 1.7% | 2.2% | – |
| GA080: PCSK9 gRNA for ABE8.8 splice site editing, Human/Cyno (nucleic acid, 2'-O-methyl at 1, 2, other sugars and backbone not given here; further chemistry not fully specified, PCSK9 gRNA for ABE8.8 splice site editing, Human/Cyno) guide: CCTTTCCAGGTCATCACAGTGTTTTAGAGCTAGAAATAGCAAGTTAAAATAAGGCTAGTCCGTTATCAACTTGAAAAAGTGGCACCGAGTCGGTGCTTTT | – | 0.4% | 0.5% | 0.6% | 7.1% | 8.8% | 7.0% | – |
| GA087: PCSK9 gRNA for ABE8.8 splice site editing, Human/Cyno (nucleic acid, 2'-O-methyl at 1, 2, other sugars and backbone not given here; further chemistry not fully specified, PCSK9 gRNA for ABE8.8 splice site editing, Human/Cyno) guide: UCACCTGCTCCTGAGGGGCCGTTTTAGAGCTAGAAATAGCAAGTTAAAATAAGGCTAGTCCGTTATCAACTTGAAAAAGTGGCACCGAGTCGGTGCTTTT | – | 1.0% | 1.4% | 1.9% | 0.2% | 0.2% | 0.2% | – |
| GA081: PCSK9 gRNA for ABE8.8 splice site editing, Human/Cyno (nucleic acid, listed as RNA; modified_base 1: mod_base = OTHER; note = 2'-O-Methyl-uridine phosphorothioate; modified_base 2: mod_base = OTHER; modified_base, PCSK9 gRNA for ABE8.8 splice site editing, Human/Cyno) guide: TTTCCAGGTCATCACAGTTGGTTTTAGAGCTAGAAATAGCAAGTTAAAATAAGGCTAGTCCGTTATCAACTTGAAAAAGTGGCACCGAGTCGGTGCTTTT | – | 4.3% | 6.1% | 8.3% | 0.3% | 0.3% | 0.3% | – |
